According to US20200087364A1 (IMMATICS BIOTECHNOLOGIES, published 2020):

Molecular target: T1, HLA-A*01:01 (human)
T1 construct: MHC class I monomer first loaded with a UV-sensitive peptide (not identified) that is cleaved by UV irradiation and exchanged for the tested peptide; captured on streptavidin plates, detected with anti-β2m; also called peptide-receptive MHC molecules
Test: UV-ligand exchange, anti-b2m ELISA
Method in brief: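 Peptide–MHC complexes made by UV-ligand exchange of a UV-cleavable peptide; exchange yield measured by ELISA on streptavidin-coated plates, samples diluted 100-fold, 1 h 37 °C. Detection with 2 ug/ml HRP anti-β2m, TMB, A450; refolded HLA-A*02:01/MLA-001 monomer standards 15-500 ng/ml.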

Binder	peptide exchange yield [%]
FPAPPAHWFY	20 to 50
NFSDLVFTY	20 to 50
AADSNPSEL	20 to 50
TTSSAISWILY	50 to 75
SITDVDFIY	20 to 50
STIRGELFF	20 to 50
